This note sets out measurements from PMC11869524, “A leucine responsive small RNA AbcR200 regulates expression of the lactate utilization (lut) operon in Acinetobacter baumannii DS002” (The Journal of Biological Chemistry, 2025).

“And” between values parts separate entries of the source, which are not always exact repeats. Equal values may be shown once.

Data set [1] deals with the molecule itself. The data set can be described thus: cross-linking; 23 uM purified AbLrp^C6His dialyzed against 20 mM Hepes, 150 mM NaCl, pH 8.0; DSS (3 mM), 30 min at room temperature, quenched with Tris-Cl; SDS-PAGE (12.5%) and Western blot with anti-His antibodies; with leucine (5 mM), with or without DNA (300 ng) containing the Lrp binding site.
Data set [2] concerns the molecule itself. The data set can be described thus: cross-linking; 23 uM purified AbLrp^C6His dialyzed against 20 mM Hepes, 150 mM NaCl, pH 8.0; DSS (3 mM), 30 min at room temperature, quenched with Tris-Cl; SDS-PAGE (12.5%) and Western blot with anti-His antibodies; without leucine, with or without DNA (300 ng) containing the Lrp binding site.

B1: A. baumannii DS002 Lrp protein (AbLrp^C6His), leucine responsive regulatory protein (natural protein, Acinetobacter baumannii DS002, UniProt V5VJ98 1-155, looked up)
chain: MRPLDRIDRMILDILQREGRIAISELASRVNLSTTPCSERVKRLERDGIIMGYYARLNPAYVDRNLLVFLEIKLSAKSGDVFDQVARDLVEIPEVLECHLISGEFDYLVKARLKEMSAYRRLLGDLLKKLPASASSHSYVVMEEVKETLYLDVSK
notes: Leucine responsive regulatory protein (Lrp) of Acinetobacter baumannii DS002; lrp gene amplified from chromosomal DNA with primers HS36 FP/HS36 RP and cloned in pET23b as NdeI and XhoI fragment (pHS10); not shown: His6, C-terminal, kept
One may read the stoichiometry N as a count of units in the complex or per binding partner. B1: the “stoichiometry N” value in data set [1] is 2 and 3; in data set [2], 4.
